Test results published in publication PMC5548808, “Structural and functional insights into the lipopolysaccharide ABC transporter LptB2FG” (Nature Communications, 2017).

B1: LptB of E. coli (in purified LptB2CFG) (natural protein, UniProt P0A9V1 1-241, looked up)
chain: MATLTAKNLAKAYKGRRVVEDVSLTVNSGEIVGLLGPNGAGKTTTFYMVVGIVPRDAGNIIIDDDDISLLPLHARARRGIGYLPQEASIFRRLSVYDNLMAVLQIRDDLSAEQREDRANELMEEFHIEHLRDSMGQSLSGGERRRVEIARALAANPKFILLDEPFAGVDPISVIDIKRIIEHLRDSGLGVLITDHNVRETLAVCERAYIVSQGHLIAHGTPTEILQDEHVKRVYLGEDFRL
notes: in the K. pneumoniae construct and in the E. coli pTRC99a-Kan LptBFG plasmid it is an 8xHis at the C terminus of LptB
B2: LptC of E. coli (in purified LptB2CFG) (natural protein, UniProt P0ADV9 1-191, looked up)
chain: MSKARRWVIIVLSLAVLVMIGINMAEKDDTAQVVVNNNDPTYKSEHTDTLVYNPEGALSYRLIAQHVEYYSDQAVSWFTQPVLTTFDKDKIPTWSVKADKAKLTNDRMLYLYGHVEVNALVPDSQLRRITTDNAQINLVTQDVTSEDLVTLYGTTFNSSGLKMRGNLRSKNAELIEKVRTSYEIQNKQTQP
notes: LptC, E. coli, inner membrane protein of the LptB2CFG complex; The construct of LptC is not described

Assays:
Assay in all cases: SEC; co-expressed E. coli LptB2CFG complexes (wild type and mutants) purified as the K. pneumoniae complex; HiLoad 16/600 Superdex 200 pg, 20 mM Tris-Cl pH 7.8, 150 mM NaCl, 5% glycerol, 0.05% DDM
Settings in all cases: both partners purified
[1] = biological target: T1, LptF of E. coli (in purified wild-type LptB2CFG) (E. coli, UniProt P0AF98 1-366)
T1 construct: LptF, E. coli, transmembrane subunit of the LptB2CFG complex
T1 sequence (looked up): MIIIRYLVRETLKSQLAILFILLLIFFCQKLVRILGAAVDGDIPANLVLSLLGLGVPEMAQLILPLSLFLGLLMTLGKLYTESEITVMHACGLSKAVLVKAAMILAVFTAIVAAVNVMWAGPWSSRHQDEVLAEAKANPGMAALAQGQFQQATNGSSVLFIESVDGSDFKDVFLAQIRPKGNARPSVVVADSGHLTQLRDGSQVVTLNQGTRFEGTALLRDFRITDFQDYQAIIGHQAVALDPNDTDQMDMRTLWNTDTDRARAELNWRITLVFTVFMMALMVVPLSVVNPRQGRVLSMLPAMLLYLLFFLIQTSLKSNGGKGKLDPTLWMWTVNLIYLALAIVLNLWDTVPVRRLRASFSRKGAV

[2] = biological target: T2, LptG of E. coli (in purified wild-type LptB2CFG) (E. coli, UniProt P0ADC6 1-360)
T2 construct: LptG, E. coli, transmembrane subunit of the LptB2CFG complex
T2 sequence (looked up): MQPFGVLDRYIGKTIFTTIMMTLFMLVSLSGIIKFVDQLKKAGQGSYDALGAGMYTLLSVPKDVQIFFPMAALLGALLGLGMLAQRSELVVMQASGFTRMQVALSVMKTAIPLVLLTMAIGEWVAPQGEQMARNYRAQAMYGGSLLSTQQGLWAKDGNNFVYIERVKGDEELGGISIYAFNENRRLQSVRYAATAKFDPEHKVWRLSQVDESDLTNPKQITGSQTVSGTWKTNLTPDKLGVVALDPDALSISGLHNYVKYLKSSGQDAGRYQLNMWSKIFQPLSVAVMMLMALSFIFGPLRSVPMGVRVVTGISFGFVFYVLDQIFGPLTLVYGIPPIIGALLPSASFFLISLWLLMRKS

[3] = biological target: T3, LptF F26D/L62D of E. coli (in purified mutant LptB2CFG) (E. coli, UniProt P0AF98 1-366, F26D | L62D)
T3 construct: LptF, E. coli, double mutant F26D/L62D
T3 sequence (looked up): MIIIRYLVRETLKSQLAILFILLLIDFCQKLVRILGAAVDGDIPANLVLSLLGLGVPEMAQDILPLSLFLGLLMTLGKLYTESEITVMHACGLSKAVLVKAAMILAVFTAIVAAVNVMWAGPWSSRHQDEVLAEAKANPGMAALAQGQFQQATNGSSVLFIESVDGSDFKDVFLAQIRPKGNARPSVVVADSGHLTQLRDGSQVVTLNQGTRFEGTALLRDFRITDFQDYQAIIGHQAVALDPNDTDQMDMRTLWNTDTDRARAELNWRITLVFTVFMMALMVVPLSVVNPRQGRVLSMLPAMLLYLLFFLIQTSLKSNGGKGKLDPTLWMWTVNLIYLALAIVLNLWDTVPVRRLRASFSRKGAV

[4] = biological target: T4, LptG K34E/R136E of E. coli (in purified mutant LptB2CFG) (E. coli, UniProt P0ADC6 1-360, K34E | R136E)
T4 construct: LptG, E. coli, double mutant K34E/R136E
T4 sequence (looked up): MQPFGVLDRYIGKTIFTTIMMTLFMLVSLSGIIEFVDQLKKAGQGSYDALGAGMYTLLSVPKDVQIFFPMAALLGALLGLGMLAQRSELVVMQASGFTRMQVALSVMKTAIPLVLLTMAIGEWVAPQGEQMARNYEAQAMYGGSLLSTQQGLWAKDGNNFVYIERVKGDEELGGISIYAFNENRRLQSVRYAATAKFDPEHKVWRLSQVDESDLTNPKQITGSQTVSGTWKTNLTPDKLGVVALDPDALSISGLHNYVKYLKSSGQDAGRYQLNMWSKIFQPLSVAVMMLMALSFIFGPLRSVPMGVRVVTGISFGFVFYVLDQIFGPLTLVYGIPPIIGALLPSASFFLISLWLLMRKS

[5] = biological target: B1

Binder | binding result [1] | binding result [2] | binding result [3] | binding result [4] | binding result [5]
B1 | binds | binds | binds | binds | –
B2 | – | – | – | – | binds
